The data set can be described thus: soluble on expression in E. coli; label from the status in PepcDB or PDB records.
For “MGSDKIHHHHHHMKIAYYLPSLQAPGGIERIVTFKANYFAEHFEGYDITIITSEQMGKAPHFPLSPKVKHIDLGVSFDLPYSQSIVSKVLKYPFRYYRFKQRLSNLLNELKPDITISTMRRELNFITKLKDGSLKIGEFHVSRYAYGAEALKRKSPIVNMIKKRWANRFVKNLSKLSRVIILTSEGAKDWPELTNISIIPNPISTPVEGKQTDILSHNAIAVGRYAPQKGFDMLIPAWSIVAQRHPDWKLHIYGEGDLKEKFTKLIDELQLNNNCLLHHTVSNIAEKYCMSSIFVLSSRYEGFGLVLAEAMSCGIPCVSFDCPHGPSNIIKDHEDGLLVEKENIKELADKICYLIENENVRIKMGHKARENVKRFLPENVMPQWKNLFESLTYSSK”, the “soluble on expression in E. coli” value is “not soluble”.

In the case of “MQPLPDPKPNTQKEHHPVDRNFIAMIDDLKTTQIPWQKPGHIMTEDEQKMWNATRMREYRRKSNETLEKSKSMLDGLKSQCTVNTVVLKNMLITKSVEDSVKLNAARFLGKSEKELMDIPEIKQMFQQYWNCRKTASNSHYEQRSLIYLDRVVSLQTEYLNYKANRNDSRSPSQLVKKIKDATMKAEAYEFFMDDKRVRKVIGELNEIDSKFKENIGAWLLQQLKIDSSLSHLLST”, the “soluble on expression in E. coli” value is given as “not soluble”.

For the sequence “SVKRLFKVRSDLDFAEQLWCKMSSSVISYQDLVKCFTLIIQSLQRGDIQPWLHSGSNSLLSKLIHQSYHGTMDTVSLSGTIPVQMLLEIGLDKLKKDYISFFIGQELASLNHLEYFIAPSVDIQEQVYRVQKLHHILEILVSCMPFIKSQHELLFSLTQICIKYYKQNPLDEQHIFQLPVRPTAVKNLYQSEKPQKWRVEIYSGQKKIKTVWQLSDSSPIDHLNFHKPDFSELTLNGSLEERIFFTNMVTCSQVHFK”, the “soluble on expression in E. coli” value is “soluble”.

With “MRSKGFLHLDTEIVVPFFDVDMMNIVWHGHYVKYLEVARCALLDHIGHNYMQMLESGYGWPVIDLQLRYVRSAVFGQKLNVRASLVEWENRLKINYLITDADTGERLTRASTVQVAVDRDSHEMQLASPQVFIDAVKRALPLEHHHHHH”, the “soluble on expression in E. coli” value is reported as “soluble”.

Take “MAHHTKETMELIKELVSIPSPSGNTAKIINFIENYVSEWNVETKRNNKGALILTVKGKNDAQHRLLTAHVDTLGAMVKEIKPDGRLSLSMIGGFRWNSVEGEYCEIETSSGKTYTGTILMHQTSVHVYKDAGEAKRDEKNIEVRIDERVFSADEVRELGIEVGDFVSFDPRVQITESGYIKSRHLDDKVSVAILLKLIKRLQDENVTLPYTTHFLISNNEEIGYGGNSNIPEETVEYLAVDMGALGDGQASDEYTVSICAKDSSGPYHYALRKHLVELAKTNHIEYKVDIYPYYGSDASAAIRAGFDVKHALIGAGIDSSHAFERTHESSIAHTEALVYAYVMSNLIEE”: the “soluble on expression in E. coli” value is “soluble”.

“MEDTIPAMPQWDKIIYNVLHGSTMKGITSLKKTSVWNEATPVCRESNREAIRRRFTRGLLGRLLQRTPLESCTPVFLPAAQSWPTLEMVPAGALLPGLSEGGEGAKNGSVTTGFFEFTESLPAVGLQRVLPVLPKSAWA”: the “soluble on expression in E. coli” value is “not soluble”.

On to “MSLGQLLSHPIEEKELDYKSYTNLTYCIGSMQGYRMTMEDAHDVKINEHENLAVFGIFDGHGGKNCSQYLAEHLPKLVFTKLNKIASAVYLKQVKDIDLKDVFDILKNSFFKIDKDLSHHANMVNCGSTATVVTIIANYIVVANTGDSRCIVSRNGHAKPLSFDHKPSNMGERVRIENSNGYILNNRINEVLALSRAFGDFKFKLPYLSSSRNKYIKENQKLLGDKLITLPPELFQVTVEPDIMLYDMQKLDSPEFLVIACDGVWDCFKNGQLVKLIRDKLSLGWRLNKIVEYILNDSLTMANNYTGIGFDNMTLIIVAIHKEGHHHHHH”, for which the “soluble on expression in E. coli” value is “soluble”.

For “MSLTKDPEWLTKEFAGNPIRTGRTIEDPDFPRIAITYSIQENEDNSKQIQDEMKDIIKDYNDYYHTAWSIEDIERYNGDINNRLARKKAEFKEFGKQIDLVIVVDRLLTGFDAPTIQTLFVDRNLSYANLIQAFSRTNRTYPGKTKGLIVTFRKPSTMEQNVKDATKLYSEAQEESDLVYPTYDESKKRFKKAHKLLTTLVPNPTDINEHSPLEIRIEFVKAFQELNNTYEALVTYDEYNDDMEKSKVLQEQINTLEEYIGVYNTVKGSLVDEGAQDGPGPDFSGIEFYGENAIKVYDIDSTYIDRLLGTYSANNQNIRDEIEKALQKLKKLEIVKDVYRAMLNAIDTKKIDSEEDILVVKRRFFTESYDKAIKEFANTWFVEGNELHLSAIQYVIGSDPIPNIRGIINSKQFDKYKAIHPDAKPLKYGPEMKRQWRKTLDEVIVPLADELREGHHHHHH”, the “soluble on expression in E. coli” value is given as “soluble”.

As for “MDPLRAQQLAAELEVEMMADMYNRMTSACHRKCVPPHYKEAELSKGESVCLDRCVSKYLDIHERMGKKLTELSMQDEELMKRVQQSSGPA”, the “soluble on expression in E. coli” value is reported as “soluble”.

For “HHHHHHTDPALRAAQQTPLYEQHTLCGARMVDFHGWMMPLHYGSQIDEHHAVRTDAGMFDVSHMTIVDLRGSRTREFLRYLLANDVAKLTKSGKALYSGMLNASGGVIDDLIVYYFTEDFFRLVVNSATREKDLSWITQHAEPFGIEITVRDDLSMIAVQGPNAQAKAATLFNDAQRQAVEGMKPFFGVQAGDLFIATTGYTGEAGYEIALPNEKAADFWRALVEAGVKPCGLGARDTLRLEAGMNLYGQEMDETISPLAANMGWTIAWEPADRDFIGREALEVQREHGTEKLVGLVMTEKGVLRNELPVRFTDAQGNQHEGIITSGTFSPTLGYSIALARVPEGIGETAIVQIRNREMPVKVTKPVFVRNGKAVAGLCGR”, the “soluble on expression in E. coli” value was “soluble”.

For the sequence “MKKVRKLYEGKAKIVYETDEKDKLILEFKDVATAFDGVKKEEIKGKGSLNNEISSLIFEILEDHGIKTHYIKKLSDREMLVWRAERFPVEVVVRNYAAGSFVKRYGVKEGTKLEQPLVEFFMKSDELHDPMVCINHIKVLKLAPAELVPEMEKIALKVNEILKKIFEEKGILLVDFKLEFGRLPSGELAIVDEISPDSMRLWDKSTGENWIKTDSV”, the “soluble on expression in E. coli” value is “soluble”.

Consider “MEKLVEWENCVSVIEAAILKHKYKQKVNKNIPSLLRVQAHIRKKMVAQ”, for which the “soluble on expression in E. coli” value is “soluble”.

With “MVFSGPASPGLTLAPLRRGGIDPCYRVDAAGAIWRTSLMPSGPVTARITRAATDAADCQAWGEGADEFIDRLPALLGVDDDASDFAPAEPTIAKARRQVPHLRLGRTGRMLEALIPAIIEQRVYGLDAWRAWRALVTKFGTPAPGPAPDGMRVVPSAEVWRRIPSWEFHRANVDPGRARTIVMCAQRADSLERLTHERAAVTLRSLPGVGEWTAAETMQRVFGDADALSAGDYHLATLVGQALTGEPVDDAGMVELLEPMRPHRHRAVRLLEASGMFVYRRRGARQAIPKLRTL”, the “soluble on expression in E. coli” value was “not soluble”.

Take “MGSDKIHHHHHHETEAPQVTTSSRPAVEIKYNDPRDPFEEVNRTMWDFNYLFLDRYVIRPVAHGYKDYVPNPVRTGVNNFVYNLEEPSSLVNNTLQGKWGWAANAGGRFTVNTTIGLLGLVDVADMMGMHRKQDDFNEVLGYYGTPNGPYFMAPFYGPIVTREIASDWVDGLYFPLSELTIWQSVLKWGLKGLDARSKAIDQERLLDNALDPYAFVKDAYLQHMDYKVFDGDVPSSQADDELLDEYLDELE”: the “soluble on expression in E. coli” value is “not soluble”.

As for “SLRITLEFTGEKNLILPIHYNYIVQGLLYDLMGDTDFAAFLHDVGFQYEKRRFKLFTFSRIEGEFQIVEKPNGQKKIIIKPPFKFTVASPLEEVIIDISKNILKREYCHFNGQKFTLNSLNIENPPIFKEKARIKFISPVVMYTTLRNGEKKYTYYYSPWDEKFSPLLLNNLVKKYELVYKIKPKNPHFKLIPLTEKEDRRYSKVIKYKNVYVKGWMGIYDVETTPELLELAYYTGLGAKNSQGFGCFEIIG”, the “soluble on expression in E. coli” value is “not soluble”.

Consider “MGSDKIHHHHHHMHFDAETVTHRGGLSKLRSLTKVNPRLAPNLAKTMLGGPRDHAVVEAFNAHAADKGFEFTSTWASNNIPFVTPLLRDFAAKRPAGEAIRYMEIGAYEGRNLAFMDWLLPDRLAVTVIDPWFDEALNPEEKYHAVEPRFRRNMDKCGFKSLSTHKGFSTYVLPQMLERGEQFDLIYVDGSHTALAVLIDLCFCASLLSVGGMMVLDDYWHDISEIGGPGVKQAVDQFHAAFGRYFEIAAVYRQVALVKTSEIPR”, for which the “soluble on expression in E. coli” value was “not soluble”.

Consider “MGSDKIHHHHHHMAKAKTAYSCTECGGQTPKWQGQCPSCMAWNTLVESVVEAAPSQNRYAALAQSSGLQKLADVEAADVPRHPTGIHEFDRVLGGGLVPGGVVLIGGDPGIGKSTLLLQTLCHIGGMRKAVYVSGEESAQQIAMRAKRLGLDAGPVELLAEISLEKILAILQQHKPEVAVIDSIQTLYSEALQSAPGSVAQVRECSAQLTRFAKQTGVTMILVGHVTKEGSLAGPRVLEHIVDTVLYFEGGQNSSFRLVRAFKNRFGAVNELGVFAMTEKGLREVSNPSALFLSHHAEQVAGSCITVTQEGSRPLLVEVQALVDEAHAPNPKRLCVGLEQNRLAMLLAVLHRHAGVACFDQDVFINAVGGVRISEPAVDLAVLLAIVSSLKNKPLNNKLIVFGEVGLAGEVRPVQRGQERLREAAKLGFTHAIVPKANLPKQVIDGLDVKGVERLDQALQLLRNG”, for which the “soluble on expression in E. coli” value is reported as “not soluble”.

Turning to “MGHHHHHHSHMMYAQSKGIYYVQLEDDIVAKPNYLSTMKNFALQQPSEDWMILEFSQLGFIGKMFKSLDLSLIVEFILMFYRDKPIDWLLDHILWVKVCNPEKDAKHCDRQKANLRIRFKPSLFQHVGTHSSLAGKIQKLKDKDFGKQALRKEHVNPPAEVSTSLKTYQHFTLEKAYLREDFFWAFTPAAGDFIRFRFFQPLRLERFFFRSGNIEHPEDKLFNTSVEVLPFDNPQSDKEALQEGRTATLRYPRSPDGYLQIGSFYKGVAEGEVDPAFGPLEALRLSIQTDSPVWVILSEIFLKKAD”, the “soluble on expression in E. coli” value was “soluble”.

Consider “MQSVELPETHQMLLQTCRDFAEKELFPIAAQVDKEHLFPAAQVKKMGGLGLLAMDVPEELGGAGLDYLAYAIAMEEISRGCASTGVIMSVNNSLYLGPILKFGSKEQKQAWVTPFTSGDKIGCFALSEPGNGSDAGAASTTARAEGDSWVLNGTKAWITNAWEASAAVVFASTDRALQNKSISAFLVPMPTPGLTLGKKEDKLGIRGSSTANLIFEDCRIPKDSILGEPGMGFKIAMQTLDMGRIGIASQALGIAQTALDCAVNYAENRMAFGAPLTKLQVIQFKLADMALALESARLLTWRAAMLKDNKKPFIKEAAMAKLAASEAATAISHQAIQILGGMGYVTEMPAERHYRDARITEIYEGTSEIQRLVIAGHLLRSYRSAENLYFQ”, for which the “soluble on expression in E. coli” value was “soluble”.

“SLTTTDADWKPVADALGRSGKLGDNNTAYRINLPRNDLHITSYGVDIKPGLSLGGYAAFARYDNNETLLMGDLVITEEELPKVTDALQAHGIAQTALHKHLLQQDPPVWWTHIHGMGDAARLAQGLKAALDATTIGPPTPPPARQPPVDIDVAGVDQALGRKGTQDGGLMKYSIPRKDTIIEDGHVLPAVSLNLTTVINFQPVGRGRAAINGDFILIAPEVQEVIRAMRAGNITIVELHNHGLTEEPRLFYMHYWAVDDAVTLARALRPAMDATNLQS”: the “soluble on expression in E. coli” value is listed as “not soluble”.

As for “STGQGQSASGSSAWSTVFRHVRYENLIAGVSGGVLSNLALHPLDLVKIRFAVSDGLELRPKYNGILHCLTTIWKLDGLRGLYQGVTPNIWGAGLSWGLYFFFYNAIKSYKTEGRAERLEATEYLVSAAEAGAMTLCITNPLWVTKTRLMLQYDAVVNSPHRQYKGMFDTLVKIYKYEGVRGLYKGFVPGLFGTSHGALQFMAYELLKLKYNQHINRLPEAQLSTVEYISVAALSKIFAVAATYPYQVVRARLQDQHMFYSGVIDVITKTWRKEGVGGFYKGIAPNLIRVTPACCITFVVYENVSHFLLDLREKRK”, the “soluble on expression in E. coli” value is listed as “soluble”.
